In the supplement of paper PMC11780869:

Test system: Bacillus subtilis
Experiment: cleaved RNA product abundance (RNA/gDNA barcode ratio) relative to median wild-type variant (ratio to wild type); higher = more accumulation of the downstream cleavage product
Conditions: cleavage site: cggR-gapA (positions -7 to +36 mutated)
In short: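 The B. subtilis chromosome carried reporter mRNAs, truncated aprE or tetM, containing barcoded RNase Y cleavage-site windows mutagenized using oligos with a 9% error rate. After growth in LB at 37°C from OD600 0.0003 to 0.3, cleaved RNA was gel-selected, reverse transcribed and barcode-sequenced next to genomic DNA barcodes, with UMI collapsing. Each construct's RNA:gDNA barcode ratio was scaled to the median construct with the unmutated site. That scaled ratio is reported as cleaved product abundance.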

[1] = experiment (reporter, strain, medium): exp 4a: truncated aprE reporter, strain BJT201 with 2% xylose (RNase J1 expressed)
[2] = experiment (reporter, strain, medium): exp 2b: truncated aprE reporter, strain BJT200
[3] = experiment (reporter, strain, medium): exp 6: tetM reporter, strain 168

Sequence	cleaved RNA product abundance [1]	cleaved RNA product abundance [2]	cleaved RNA product abundance [3]
ACAGACGAAGGAGCCGCAAAGAAGTTATTAAGGGATGAAAAATCCCTCAATATAAACATCTCTCACTTATTTAAA	0.772	–	–
ACAGACGAAGGAGCCGCAAAGAAGTTATTAAGGGATGAAAAATCCCTCAATATAAATAACTCTCACTTATTTAAA	0.632	–	–
ACAGACGAAGGAGCCGCAAAGAAGTTATTAAGGGATGAAAAATCCCTCAATATAAATAGCTCTCACTTATTTAAA	0.554	–	–
ACAGACGAAGGAGCCGCAAAGAAGTTATTAAGGGATGAAAAATCCCTCAATATAAATATCTCTCACTTATTTAAA	0.781	0.78	0.985
ACAGACGAAGGAGCCGCAAAGAAGTTATTAAGGGATGAAAAATCCCTCAATATAAATGTCTCTCACTTATTTAAA	0.622	0.304	–
ACAGACGAAGGAGCCGCAAAGAAGTTATTAAGGGATGAAAAATCCCTCAATATAATTATCTCTCACTTATTTAAA	0.171	–	–
ACAGACGAAGGAGCCGCAAAGAAGTTATTAAGGGATGAAAAATCCCTCAATATAGATATCTCTCACTTATTTAAA	–	0.277	–
ACAGACGAAGGAGCCGCAAAGAAGTTATTAAGGGATGAAAAATCCCTCAATATCAATATCTCTCACTTATTTAAA	0.0918	–	–
ACAGACGAAGGAGCCGCAAAGAAGTTATTAAGGGATGAAAAATCCCTCAATATGAATATCTCTCACTTATTTAAA	0.151	–	–
ACAGACGAAGGAGCCGCAAAGAAGTTATTAAGGGATGAAAAATCCCTCAATATTAATATCTCTCACTTATTTAAA	0.157	0.199	–
ACAGACGAAGGAGCCGCAAAGAAGTTATTAAGGGATGAAAAATCCCTCAATTTAAATATCTCTCACTTATTTAAA	–	0.2	–
ACAGACGAAGGAGCCGCAAAGAAGTTATTAAGGGATGAAAAATCCCTCACTATAAATATCTCTCACTTATTTAAA	–	0.161	–
ACAGACGAAGGAGCCGCAAAGAAGTTATTAAGGGATGAAAAATCCCTCAGTATAAATATCTCTCACTTATTTAAA	0.224	–	–
ACAGACGAAGGAGCCGCAAAGAAGTTATTAAGGGATGAAAAATCCCTCATTATAAATATCTCTCACTTATTTAAA	0.331	0.226	–
ACAGACGAAGGAGCCGCAAAGAAGTTATTAAGGGATGAAAAATCCCTCTATATAAATATCTCTCACTTATTTAAA	0.535	–	–
ACAGACGAAGGAGCCGCAAAGAAGTTATTAAGGGATGAAAAATCCGTCAATATAAATATCTCTCACTTATTTAAA	0.355	–	–
ACAGACGAAGGAGCCGCAAAGAAGTTATTAAGGGATGAAAAATCCTTCAATATAAATATCTCTCACTTATTTAAA	0.505	0.355	–
ACAGACGAAGGAGCCGCAAAGAAGTTATTAAGGGATGAAAAATCGCTCAATATAAATATCTCTCACTTATTTAAA	0.0823	–	–
ACAGACGAAGGAGCCGCAAAGAAGTTATTAAGGGATGAAAAATCTCTCAATATAAATATCTCTCACTTATTTAAA	0.506	–	–
ACAGACGAAGGAGCCGCAAAGAAGTTATTAAGGGATGAAAAATTCCTCAATATAAATATCTCTCACTTATTTAAA	0.327	0.274	–
ACAGACGAAGGAGCCGCAAAGAAGTTATTAAGGGATGAAAACTCCCTCAATATAAATATCTCTCACTTATTTAAA	–	0.816	–
ACAGACGAAGGAGCCGCAAAGAAGTTATTAAGGGATGAAATATCCCTCAATATAAATATCTCTCACTTATTTAAA	0.586	–	–
ACAGACGAAGGAGCCGCAAAGAAGTTATTAAGGGATGAACAATACCTCAATATAAATATCTCTCACTTATTTAAA	0.229	–	–
ACAGACGAAGGAGCCGCAAAGAAGTTATTAAGGGATGAACAATCACTCAATATAAATATCTCTCACTTATTTAAA	0.105	–	–

Sequence	cleaved RNA product abundance [1]	cleaved RNA product abundance [2]	cleaved RNA product abundance [3]
ACAGACGAAGGAGCCGCAAAGAAGTTATTAAGGGATGAACAATCCCACAATATAAATATCTCTCACTTATTTAAA	0.364	–	–
ACAGACGAAGGAGCCGCAAAGAAGTTATTAAGGGATGAACAATCCCTAAATATAAATATCTCTCACTTATTTAAA	0.62	0.33	–
ACAGACGAAGGAGCCGCAAAGAAGTTATTAAGGGATGAACAATCCCTCAACATAAATATCTCTCACTTATTTAAA	0.265	–	–
ACAGACGAAGGAGCCGCAAAGAAGTTATTAAGGGATGAACAATCCCTCAATAAAAATATCTCTCACTTATTTAAA	0.151	–	–
ACAGACGAAGGAGCCGCAAAGAAGTTATTAAGGGATGAACAATCCCTCAATATAAATATCTCTCACTTATTTAAA	0.864	0.842	0.875
ACAGACGAAGGAGCCGCAAAGAAGTTATTAAGGGATGAACAATCCCTCAATATATATATCTCTCACTTATTTAAA	0.441	–	–
ACAGACGAAGGAGCCGCAAAGAAGTTATTAAGGGATGAACAATCCCTCAATATTAATATCTCTCACTTATTTAAA	0.189	–	–
ACAGACGAAGGAGCCGCAAAGAAGTTATTAAGGGATGAACAATCCCTCACTATAAATATCTCTCACTTATTTAAA	0.331	–	–
ACAGACGAAGGAGCCGCAAAGAAGTTATTAAGGGATGAACAATCCCTCATTATAAATATCTCTCACTTATTTAAA	0.321	0.22	–
ACAGACGAAGGAGCCGCAAAGAAGTTATTAAGGGATGAACAATCCCTCGATATAAATATCTCTCACTTATTTAAA	0.554	–	–
ACAGACGAAGGAGCCGCAAAGAAGTTATTAAGGGATGAACAATCCGTCAATATAAATATCTCTCACTTATTTAAA	0.109	–	–
ACAGACGAAGGAGCCGCAAAGAAGTTATTAAGGGATGAACAATCCTTCAATATAAATATCTCTCACTTATTTAAA	0.58	–	–
ACAGACGAAGGAGCCGCAAAGAAGTTATTAAGGGATGAACAATCGCTCAATATAAATATCTCTCACTTATTTAAA	0.104	–	–
ACAGACGAAGGAGCCGCAAAGAAGTTATTAAGGGATGAACAATGCCTCAATATAAATATCTCTCACTTATTTAAA	0.136	–	–
ACAGACGAAGGAGCCGCAAAGAAGTTATTAAGGGATGAACAATTCCTCAATATAAATATCTCTCACTTATTTAAA	0.44	–	–
ACAGACGAAGGAGCCGCAAAGAAGTTATTAAGGGATGAACATTCCCTCAATATAAATATCTCTCACTTATTTAAA	0.633	–	–
ACAGACGAAGGAGCCGCAAAGAAGTTATTAAGGGATGAACTATCCCTCAATATAAATATCTCTCACTTATTTAAA	0.794	–	–
ACAGACGAAGGAGCCGCAAAGAAGTTATTAAGGGATGAAGAAGCCCTCAATATAAATATCTCTCACTTATTTAAA	0.549	–	–
ACAGACGAAGGAGCCGCAAAGAAGTTATTAAGGGATGAAGAATACCTCAATATAAATATCTCTCACTTATTTAAA	0.106	–	–
ACAGACGAAGGAGCCGCAAAGAAGTTATTAAGGGATGAAGAATCCATCAATATAAATATCTCTCACTTATTTAAA	–	0.124	–
ACAGACGAAGGAGCCGCAAAGAAGTTATTAAGGGATGAAGAATCCCCCAATATAAATATCTCTCACTTATTTAAA	0.183	–	–
ACAGACGAAGGAGCCGCAAAGAAGTTATTAAGGGATGAAGAATCCCTAAATATAAATATCTCTCACTTATTTAAA	0.44	–	–
ACAGACGAAGGAGCCGCAAAGAAGTTATTAAGGGATGAAGAATCCCTCAATATAAATATCTCTCACTTATTTAAA	0.658	0.653	0.732
